The assay concerns the target human Replication Factor C (hRFC) with RFC1ΔN555 (human) (UniProt P35251).

“S228I-PCNA (from UniProt P12004 1-261) (natural protein)”: the apparent Kd from hRFC ATPase activity as a function of PCNA concentration amounted to 120 nM.

Source of the values: paper doi:10.1101/2020.02.18.953257.
